Data on one molecule can be found in US6967092 (dated 2005).

The target in the assay is T1, human G-CSF receptor transfected in BaF3 cells (human, UniProt Q99062 25-836).
T1 construct: whole, on cells; also called hG-CSF receptor; BaF3/hG-CSF
Nature of the assay: competition with an agonist-specific radioligand, BaF3 cells transfected with the G-CSF receptor.

B1: G-CSF (ligand)
chain: not shown
By IC50 is commonly meant the concentration needed to halve the response being measured. As to B1, the IC50 worked out at 0.69 nM.
